Target: one-twelfth protomer of the giant extracellular haemoglobin from Glossoscolex paulistus (cyanomet HbGp) (Glossoscolex paulistus)
Assay: crystal structure; cyanomet-HbGp, whole particle; crystals from 1.2 M sodium citrate, 2.5 mM CaCl2, 50 mM Tris-HCl pH 7.5; space group I222, data to 3.2 Å; molecular replacement with the one-twelfth protomer of L. terrestris erythrocruorin (2gtl); preliminary, not refined

## one-twelfth protomer of the giant extracellular haemoglobin from Glossoscolex paulistus (cyanomet HbGp) (complex)
  stoichiometry N (protomers per full particle): 12

— paper PMC3004248
